{
  "source": "patent US20230131339A1",
  "about": "“EPI-X4 BASED PEPTIDES AND DERIVATIVES THEREOF” (Universitaet Ulm, priority 2020, published 2023)",
  "binders": {"B1": {"name": "JM#256 (peptide)", "peptide": "[dL]LRWSRK(Stearoyl)-NH2", "modifications": "N-terminus assumed", "SMILES": "CCCCCCCCCCCCCCCCCC(=O)NCCCC[C@H](NC(=O)[C@H](CCCNC(=N)N)NC(=O)[C@H](CO)NC(=O)[C@H](Cc1c[nH]c2ccccc12)NC(=O)[C@H](CCCNC(=N)N)NC(=O)[C@H](CC(C)C)NC(=O)[C@H](N)CC(C)C)C(N)=O"}},
  "note": "Where no end group is shown, it is not given here. [ ]: non-standard residue; d: D form. The star is where a group is joined. Stearoyl = CCCCCCCCCCCCCCCCCC(=O)*; Palmitoyl = CCCCCCCCCCCCCCCC(=O)*; Myristoyl = CCCCCCCCCCCCCC(=O)*",
  "data": [
    {"target": "CXC chemokine receptor type 4 (CXCR4) (human, UniProt P61073 1-352)", "sequence (P61073 whole entry)": "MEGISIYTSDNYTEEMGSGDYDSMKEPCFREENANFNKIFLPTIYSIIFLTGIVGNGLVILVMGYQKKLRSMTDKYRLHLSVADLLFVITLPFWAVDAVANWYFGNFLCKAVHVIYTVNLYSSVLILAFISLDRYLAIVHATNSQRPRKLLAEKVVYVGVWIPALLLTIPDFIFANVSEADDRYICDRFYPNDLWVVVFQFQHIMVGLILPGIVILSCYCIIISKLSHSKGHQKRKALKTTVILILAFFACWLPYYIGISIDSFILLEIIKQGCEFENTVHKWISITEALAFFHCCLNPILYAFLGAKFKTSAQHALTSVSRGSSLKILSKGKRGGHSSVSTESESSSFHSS", "test": "cell-based or functional assay", "units": {"IC50, HIV inhibition assay": "nM"}, "values": [
      {"binder": "IVRWSKKFPCVS", "note": "[JM#7]", "IC50, HIV inhibition assay": "> 150"},
      {"binder": "ILRWSRKLPSVS", "note": "[JM#122]", "IC50, HIV inhibition assay": "50 to 150"},
      {"binder": "IVRWSKKIPCVS", "note": "[JM#6]", "IC50, HIV inhibition assay": "> 150"},
      {"binder": "MMRWSRKMPCVS", "note": "[JM#34]", "IC50, HIV inhibition assay": "50 to 150"},
      {"binder": "IFRWSKKVPCVS", "note": "[JM#2]", "IC50, HIV inhibition assay": "> 150"},
      {"binder": "IVRWSRKVPCVS", "note": "[JM#3]", "IC50, HIV inhibition assay": "> 150"},
      {"binder": "ILRWSRK(Palmitoyl)MPCLS", "note": "[JM#149]", "IC50, HIV inhibition assay": "50 to 150"},
      {"binder": "ILRWSKKVPCVS", "note": "[JM#1]", "IC50, HIV inhibition assay": "> 150"},
      {"binder": "ILRWSRK(Lau)LPCVS", "note": "[JM#214]", "IC50, HIV inhibition assay": "50 to 150"},
      {"binder": "B1", "IC50, HIV inhibition assay": "50 to 150"},
      {"binder": "ILRWSRKVPC[dV]S", "note": "[JM#15]", "IC50, HIV inhibition assay": "> 150"},
      {"binder": "[dL]LRWSRKMPCVS (not fully specified (residue 7))", "note": "[JM#140]", "IC50, HIV inhibition assay": "50 to 150"},
      {"binder": "IIRWSRKMPCVS", "note": "[JM#16]", "IC50, HIV inhibition assay": "> 150"},
      {"binder": "ILRWSRKMPSVS", "note": "[JM#24]", "IC50, HIV inhibition assay": "> 150"},
      {"binder": "IFRWSHKVPCVS", "note": "[JM#11]", "IC50, HIV inhibition assay": "> 150"},
      {"binder": "Ac-SLRWSRKMPCVS", "note": "[JM#25]", "IC50, HIV inhibition assay": "> 150"},
      {"binder": "MLRWSRKMPCVS", "note": "[JM#27]", "IC50, HIV inhibition assay": "50 to 150"},
      {"binder": "IVRWSKKMPCVS", "note": "[JM#12]", "IC50, HIV inhibition assay": "> 150"},
      {"binder": "ILRWSRK(Myristoyl)-NH2", "note": "[JM#262]", "IC50, HIV inhibition assay": "50 to 150"},
      {"binder": "IVRWSKKVPC[dV]S", "note": "[JM#14]", "IC50, HIV inhibition assay": "> 150"},
      {"binder": "ILRWSRKVPCVS", "note": "[JM#8]", "IC50, HIV inhibition assay": "50 to 150"},
      {"binder": "ILRWSHKVPCVS", "note": "[JM#9]", "IC50, HIV inhibition assay": "> 150"},
      {"binder": "IFRWSRKVPCVS", "note": "[JM#10]", "IC50, HIV inhibition assay": "50 to 150"},
      {"binder": "IVRWSKKLPCVS", "note": "[JM#5]", "IC50, HIV inhibition assay": "> 150"},
      {"binder": "ILRWSRKVPSVS", "note": "[JM#23]", "IC50, HIV inhibition assay": "> 150"},
      {"binder": "IVRWSHKVPCVS", "note": "[JM#4]", "IC50, HIV inhibition assay": "> 150"}
    ]}
  ]
}
